Laboratory results from patent US20240209100A1 (DIAGONAL THERAPEUTICS, published 2024).

T1: IL-18 receptor (IL-18Rα/IL-18Rβ) overexpressed on HEK-Blue IL-18 cells (Homo sapiens (Human), UniProt Q13478 19-541; O95256 20-599)
T1 sequence 1: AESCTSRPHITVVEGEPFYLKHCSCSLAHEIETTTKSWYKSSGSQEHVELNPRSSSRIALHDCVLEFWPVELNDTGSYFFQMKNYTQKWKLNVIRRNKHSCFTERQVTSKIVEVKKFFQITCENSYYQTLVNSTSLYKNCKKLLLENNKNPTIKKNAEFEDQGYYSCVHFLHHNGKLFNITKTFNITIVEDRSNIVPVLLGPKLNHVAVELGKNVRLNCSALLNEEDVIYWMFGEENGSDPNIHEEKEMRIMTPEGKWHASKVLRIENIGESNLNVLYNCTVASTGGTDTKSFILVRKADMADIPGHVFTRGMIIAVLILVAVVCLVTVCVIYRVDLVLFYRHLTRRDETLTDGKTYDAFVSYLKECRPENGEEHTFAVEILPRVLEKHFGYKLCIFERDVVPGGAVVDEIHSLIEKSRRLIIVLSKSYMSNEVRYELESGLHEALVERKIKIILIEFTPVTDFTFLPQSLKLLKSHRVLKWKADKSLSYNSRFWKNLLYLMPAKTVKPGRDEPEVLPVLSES
T1 sequence 2: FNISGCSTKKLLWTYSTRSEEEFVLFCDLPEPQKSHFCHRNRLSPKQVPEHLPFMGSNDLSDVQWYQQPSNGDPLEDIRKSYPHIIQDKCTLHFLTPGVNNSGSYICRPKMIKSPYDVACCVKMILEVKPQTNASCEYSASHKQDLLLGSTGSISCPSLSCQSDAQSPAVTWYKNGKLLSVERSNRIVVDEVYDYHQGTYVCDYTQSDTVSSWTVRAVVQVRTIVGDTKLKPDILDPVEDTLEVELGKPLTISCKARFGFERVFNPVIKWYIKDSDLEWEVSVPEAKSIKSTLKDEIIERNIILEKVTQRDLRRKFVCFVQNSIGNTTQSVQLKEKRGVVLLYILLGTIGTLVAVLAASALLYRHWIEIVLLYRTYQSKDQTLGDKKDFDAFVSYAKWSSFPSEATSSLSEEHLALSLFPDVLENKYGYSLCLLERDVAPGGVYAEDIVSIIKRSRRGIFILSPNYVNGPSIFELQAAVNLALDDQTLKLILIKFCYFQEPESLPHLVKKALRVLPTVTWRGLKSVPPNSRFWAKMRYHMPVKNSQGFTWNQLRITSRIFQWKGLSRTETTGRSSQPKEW


The binders below were run against T1, IL-18 receptor (IL-18Rα/IL-18Rβ) … (assay: cell-based or functional assay).

Binder | HEK-Blue IL-18: Abs 405 | HEK-Blue IL-18: Fold over Background
DGL298 (bispecific antibody, V domains shown) V domain 1: QVQLVESGGGLVQAGGSLRLSCAASGRTFSSYDMGWFRQAPGKEREFVAALRWSGGSTSYADSVKGRFTISRDNAKNTVYLHMNSLKPEDTAVYYCAATLETDSGTYWADYWGQGTQVTVSS V domain 2: QVQLVESGGGLVLPGESLRLSCVVSGTIDNINSMGWYRQAPGKQRELVAYITKLGSANYADSVEGRFTISRDNAKKTVHLQMNSLKPEDTAVYYCHANERGRITWAQGTQVTVSS | 0.97 Abs | 4.2 fold
DGL302 (bispecific antibody, V domains shown) V domain 1: QVQLVESGGGLVQAGGSLRLSCAASGRTFSKHAMGWFRQAPGKEREFVAAIDWSGGSTYYADSVKGRFTISRDNAKNTVYLQMDSLKPEDTAVYYCAADSYTDYAQLWLPELESEYDYWGQGTQVTVSS V domain 2: QVQLVESGGGLVLPGESLRLSCVVSGTIDNINSMGWYRQAPGKQRELVAYITKLGSANYADSVEGRFTISRDNAKKTVHLQMNSLKPEDTAVYYCHANERGRITWAQGTQVTVSS | 1.18 Abs | 5.2 fold
DGL308 (bispecific antibody, V domains shown) V domain 1: QVQLVESGGGLVQAGGSLRLSCAASGRTFSSYDMGWFRQAPGKEREFVAALRWSGGSTSYADSVKGRFTISRDNAKNTVYLHMNSLKPEDTAVYYCAATLETDSGTYWADYWGQGTQVTVSS V domain 2: EVQLVESGGGVAQAGGSLRLSCAASITSFSLNTMGYYRQLPGKQRELVAVESSSGITNYADSVKGRFTISRDGAKNTVFLQMNSLTPEDTAVYYCGGKLFGRDFWGQGTQVTVSS | 1.48 Abs | 6.4 fold
DGL303 (bispecific antibody, V domains shown) V domain 1: QVQLQESGGGLVQPGGSLRLSCAASGFIFSNWYMRWVRQAPGEGLEWVSSINSGGDDTDYADSVKGRFTISRDNAKGTLYLQMHSLKPEDTALYYCERGADRVRGQGTQVTVSS V domain 2: QVQLVESGGGLVLPGESLRLSCVVSGTIDNINSMGWYRQAPGKQRELVAYITKLGSANYADSVEGRFTISRDNAKKTVHLQMNSLKPEDTAVYYCHANERGRITWAQGTQVTVSS | 1.02 Abs | 4.4 fold
DGL304 (bispecific antibody, V domains shown) V domain 1: QVQLVESGGGLVQAGGSLRLSCAASGRTFSSYDMGWFRQAPGKEREFVAALRWSGGSTSYADSVKGRFTISRDNAKNTVYLHMNSLKPEDTAVYYCAATLETDSGTYWADYWGQGTQVTVSS V domain 2: QVQLQESGGGLVQPGGSLGLSCAASGIKISVNSMAWYRQAPGERREMVAVISSGGSAVYADSVKGRFTISRDNAKNMVYLQMNSLKPEDTAVYYCHPGSAAYRDYWGQGTQVTVSS | 1.32 Abs | 5.7 fold
DGL301 (bispecific antibody, V domains shown) V domain 1: QVQLQESGGGLVQPGGSARLSCVASGIIFNDYHMGWYRQAPGKQRDLVAGITAGGSTTYADSVKGRFTISRDNAKHTVYLQMNNLSPEDTAVYYCNTFYNAILDWGKGTLVTVSS V domain 2: QVQLVESGGGLVLPGESLRLSCVVSGTIDNINSMGWYRQAPGKQRELVAYITKLGSANYADSVEGRFTISRDNAKKTVHLQMNSLKPEDTAVYYCHANERGRITWAQGTQVTVSS | 0.66 Abs | 2.9 fold
DGL299 (bispecific antibody, V domains shown) V domain 1: EVQLVESGGGLVQPGGSLRLSCAASGSIFSINAMGWYRQAPGKQREVVATSTGGGMTNYADSVKGRFTISRDNAKNTVYLQMNSLKPEDTAVYYCNADKDPFFPGDYWGQGTQVTVSS V domain 2: QVQLVESGGGLVLPGESLRLSCVVSGTIDNINSMGWYRQAPGKQRELVAYITKLGSANYADSVEGRFTISRDNAKKTVHLQMNSLKPEDTAVYYCHANERGRITWAQGTQVTVSS | 0.91 Abs | 4 fold
DGL300 (bispecific antibody, V domains shown) V domain 1: QVQLQESGGGLVQPGGSLRLSCAASGSIFSTKGLGWYRQAPGEQRELVAGISSAGWIFYTQSVKGRFTMSRDNAKNTVYLQMNSLKPEDTAVYYCNSAQSGVPLRSWGQGTQVTVAS V domain 2: QVQLVESGGGLVLPGESLRLSCVVSGTIDNINSMGWYRQAPGKQRELVAYITKLGSANYADSVEGRFTISRDNAKKTVHLQMNSLKPEDTAVYYCHANERGRITWAQGTQVTVSS | 1.07 Abs | 4.7 fold
DGL305 (bispecific antibody, V domains shown) V domain 1: EVQLVESGGGLVQPGGSLRLSCAASGSIFSINAMGWYRQAPGKQREVVATSTGGGMTNYADSVKGRFTISRDNAKNTVYLQMNSLKPEDTAVYYCNADKDPFFPGDYWGQGTQVTVSS V domain 2: QVQLQESGGGLVQPGGSLGLSCAASGIKISVNSMAWYRQAPGERREMVAVISSGGSAVYADSVKGRFTISRDNAKNMVYLQMNSLKPEDTAVYYCHPGSAAYRDYWGQGTQVTVSS | 0.25 Abs | 1.1 fold
DGL307 (bispecific antibody, V domains shown) V domain 1: QVQLVESGGGLVQAGGSLRLSCAASGRTFSSYTMGWFRQAPGKEREFVAAISWSAGRTYYADSVKGRFTISRDNAKNTVYLQMNSLKPEDTAVYFCAAEEAPDWAPIDCSGYGCLSLYDYWGQGTQVTVSS V domain 2: QVQLQESGGGLVQPGGSLGLSCAASGIKISVNSMAWYRQAPGERREMVAVISSGGSAVYADSVKGRFTISRDNAKNMVYLQMNSLKPEDTAVYYCHPGSAAYRDYWGQGTQVTVSS | 0.35 Abs | 1.5 fold
DGL306 (bispecific antibody, V domains shown) V domain 1: QVQLVESGGGLVQAGGSLRLSCAASGRTFSKHAMGWFRQAPGKEREFVAAIDWSGGSTYYADSVKGRFTISRDNAKNTVYLQMDSLKPEDTAVYYCAADSYTDYAQLWLPELESEYDYWGQGTQVTVSS V domain 2: QVQLQESGGGLVQPGGSLGLSCAASGIKISVNSMAWYRQAPGERREMVAVISSGGSAVYADSVKGRFTISRDNAKNMVYLQMNSLKPEDTAVYYCHPGSAAYRDYWGQGTQVTVSS | 1.41 Abs | 6.2 fold
DGL309 (bispecific antibody, V domains shown) V domain 1: QVQLQESGGGLVQPGGSARLSCVASGIIFNDYHMGWYRQAPGKQRDLVAGITAGGSTTYADSVKGRFTISRDNAKHTVYLQMNNLSPEDTAVYYCNTFYNAILDWGKGTLVTVSS V domain 2: EVQLVESGGGVAQAGGSLRLSCAASITSFSLNTMGYYRQLPGKQRELVAVESSSGITNYADSVKGRFTISRDGAKNTVFLQMNSLTPEDTAVYYCGGKLFGRDFWGQGTQVTVSS | 0.23 Abs | 1 fold
DGL311 (bispecific antibody, V domains shown) V domain 1: QVQLVESGGGLVQAGGSLRLSCAASGRTFSSYTMGWFRQAPGKEREFVAAISWSAGRTYYADSVKGRFTISRDNAKNTVYLQMNSLKPEDTAVYFCAAEEAPDWAPIDCSGYGCLSLYDYWGQGTQVTVSS V domain 2: EVQLVESGGGVAQAGGSLRLSCAASITSFSLNTMGYYRQLPGKQRELVAVESSSGITNYADSVKGRFTISRDGAKNTVFLQMNSLTPEDTAVYYCGGKLFGRDFWGQGTQVTVSS | 0.79 Abs | 3.4 fold
DGL310 (bispecific antibody, V domains shown) V domain 1: QVQLVESGGGLVQAGGSLRLSCAASGRTFSKHAMGWFRQAPGKEREFVAAIDWSGGSTYYADSVKGRFTISRDNAKNTVYLQMDSLKPEDTAVYYCAADSYTDYAQLWLPELESEYDYWGQGTQVTVSS V domain 2: EVQLVESGGGVAQAGGSLRLSCAASITSFSLNTMGYYRQLPGKQRELVAVESSSGITNYADSVKGRFTISRDGAKNTVFLQMNSLTPEDTAVYYCGGKLFGRDFWGQGTQVTVSS | 2.7 Abs | 11.8 fold
